This assay has as its system keratin 1. The assay can be described thus: keratin 1 expression by Western blot in keratinocytes. In kind it is cell-based, mice. To be noted: visfatin 0.0001 μg/ml or L-alpha 100 ng/ml, 24 hours after calcium-induced differentiation. The text has this:
Medium A and B are both EMEM eagle's minimal essential medium from Biological Industries (Israel) containing 8% CHELEX™ treated fetal bovine serum. CHELEX™ is a strong chelator which binds free Ca^2+ and Mg^2+ ions to prevent these ions from being bioavailable to the cultured cells.
Primary skin keratinocytes isolated from the tails of adult mice (7-10 months up to 2 years) were maintained in medium A (MEM) as described above. After 5 days in (medium A), the growth medium in half of the cultured plates was replaced with medium B (as described above)
Next visfatin or L-alpha were each individually added to cells cultured in medium A (FIG. 19A) and cells cultured in medium B (FIG. 19B) as indicated in FIG. 19. The final concentration in the culture medium of visfatin was 0.0001 μg/ml visfatin. The final concentration in the culture medium of L-alpha was 100 ng/ml.
Cell differentiation was induced by elevating calcium from 0.05 mM to 0.12 mM as described above. Twenty-four (24) hours after differentiation cells were harvested and Western Blot analysis was performed. […] Keratin 1 expression was then quantified using standard densitometric methods […]
Cell differentiation was then induced by elevating calcium levels in the culture medium from 0.05 mM to 0.12 mM. […] Expression was assessed using standard Western blotting and densitometry techniques.
(In western blotting, separated proteins are transferred to a membrane and probed.)

B1: visfatin: murine visfatin (ALEXIS), adipocytokine that functions as an insulin analog (protein, UniProt Q99KQ4 1-491, looked up)
Nicotinamide …: MNAAAEAEFNILLATDSYKVTHYKQYPPNTSKVYSYFECREKKTENSKVRKVKYEETVFYGLQYILNKYLKGKVVTKEKIQEAKEVYREHFQDDVFNERGWNYILEKYDGHLPIEVKAVPEGSVIPRGNVLFTVENTDPECYWLTNWIETILVQSWYPITVATNSREQKKILAKYLLETSGNLDGLEYKLHDFGYRGVSSQETAGIGASAHLVNFKGTDTVAGIALIKKYYGTKDPVPGYSVPAAEHSTITAWGKDHEKDAFEHIVTQFSSVPVSVVSDSYDIYNACEKIWGEDLRHLIVSRSTEAPLIIRPDSGNPLDTVLKVLDILGKKFPVTENSKGYKLLPPYLRVIQGDGVDINTLQEIVEGMKQKKWSIENVSFGSGGALLQKLTRDLLNCSFKCSYVVTNGLGVNVFKDPVADPNKRSKKGRLSLHRTPAGNFVTLEEGKGDLEEYGHDLLHTVFKNGKVTKSYSFDEVRKNAQLNIEQDVAPH
Take B1: the “expression of keratin 1” value runs as follows: (medium A (no KCl)) “decreased relative to the control sample”; (medium B (KCl 0.4 mg/ml)) “not significantly altered”.
